Test results from PMC7641127, “MCL1 binds and negatively regulates the transcriptional function of tumor suppressor p73” (Cell Death & Disease, 2020).
*: point of attachment. FITC = O=C1OC2(c3ccc(O)cc3Oc3cc(O)ccc32)c2ccc(NC(=S)*)cc21; Ahx = NCCCCCC(=O)O

Molecular target: recombinant MCL1 (human) (UniProt Q07820)
Assay: fluorescence polarisation; direct FPA: recombinant MCL1 with FITC-peptide, 30 min, 1× PBS pH 7.4; limit of detection of the probe 5 nM

Chain of recombinant MCL1 (human) (Q07820 whole entry): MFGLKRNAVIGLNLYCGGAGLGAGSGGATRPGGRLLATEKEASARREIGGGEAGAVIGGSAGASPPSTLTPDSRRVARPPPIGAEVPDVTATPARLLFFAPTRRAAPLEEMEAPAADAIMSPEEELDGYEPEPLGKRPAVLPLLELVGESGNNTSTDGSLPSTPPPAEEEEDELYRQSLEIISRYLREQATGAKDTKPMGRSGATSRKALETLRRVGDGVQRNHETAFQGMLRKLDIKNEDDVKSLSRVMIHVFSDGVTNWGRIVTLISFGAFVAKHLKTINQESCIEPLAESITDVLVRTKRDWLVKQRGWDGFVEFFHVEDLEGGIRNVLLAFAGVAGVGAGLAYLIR

Binder: {FITC-Ahx}-GQVGRQLAIIGDDINRRYD-NH2 [FITC-AHX-BAK peptide]
- Kd: < 5 nM
